One substance from PMC9865888 can be followed below.

In the experiment the target is S. aureus DNA gyrase fusion truncate GyrB27:A56 (GKdel) (Staphylococcus aureus) (UniProt P66937). Kind of experiment: crystal structure; 2.8 Å, space group P6_(1); microbatch under oil, 20 °C; complex with 20-447T DNA duplex, zoliflodacin and MnCl2; 90 mM Bis-Tris pH 6.3, 9% PEG 5 kMME.

Broadly, the stoichiometry N is a count of units in the complex or per binding partner. Substance “S. aureus DNA gyrase fusion truncate GyrB27:A56 (GKdel) (from UniProt P66937 409-644; Q99XG5 2-491) (enzyme)” registered a stoichiometry N of 2.
